± gives the uncertainty stated by the source.
Assay: self-splicing fitness, log relative to wild type (ln ratio); higher = more splicing; Tetrahymena group I intron in knt gene, E. coli kanamycin selection, DiMSum; sequences stand for … in CUCUCU…GGAGGGAAAAGUUAUCAGGCAUGCACCUGGUAGCUAGUCUUUAAACCAAUAGAUUGCAUCGGUUUAAAAGGCAAGACCGUCAAAUUGCGGGAAAGGGGUCAACAGCCGUUCAGUACCAAGUCUCAGGGGAAACUUUGAGAUGGCCUUGCAAAGGGUAUGGUAAUAAGCUGACGGACAUGGUCCUAACCACGCAGCCAAGUCCUAAGUCAACAGAUCUUCUGUUGAUAUGGAUGCAGUUCACAGACUAAAUGUCGGUCGGGGAAGAUGUAUUCUUCUCAUAAGAUAUAGUCGGACCUCUCCUUAAUGGGAGCUAGCGGAUGAAGUGAUGCAACACUGGAGCCGCUGGGAACUAAUUUGUAUGCGAAAGUAUAUUGAUUAGUUUUGGAGUACUCGUGGUCG
Summary of the method: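 The eight P1ex-region nucleotides of an intron in the knt kanamycin-resistance gene on pET-22b(+) were all randomised and the library put into E. coli BL21(DE3). Six replicate transformations were grown overnight at 37°C or 30°C on LB agar with or without 25 μg/mL kanamycin, together with 100 μg/mL carbenicillin, 50 μM IPTG and 0.2% rhamnose. Colonies were pooled and amplicon-sequenced on an Illumina HiSeq 2500. Fitness from DiMSum is the error-weighted combination of wild-type-normalised replicate fold changes, kanamycin over none.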

| Sequence | self-splicing fitness (ln) (30 °C) | self-splicing fitness (ln) (37 °C) |
| --- | --- | --- |
| GGCGAGCAAUAUUACGGCGU | -2.49 ± 0.21 | -1.1 ± 0.2 |
| CACCAGCAAUAUUACGAAAC | – | -2.12 ± 0.31 |
| CACUAGCAAUAUUACGCCCC | -0.891 ± 0.38 | -0.252 ± 0.47 |
| GACAAGCAAUAUUACGCCAU | -3.44 ± 0.4 | -2.96 ± 0.26 |
| UUGCAGCAAUAUUACGUAUG | -1.8 ± 0.081 | -1.11 ± 0.12 |
| UGAGAGCAAUAUUACGGUCA | -0.647 ± 0.1 | -0.589 ± 0.13 |
| GGCCAGCAAUAUUACGUACC | -0.685 ± 0.13 | 1.43 ± 0.17 |
| GUUGAGCAAUAUUACGGAUG | -3.56 ± 0.42 | -1.75 ± 0.36 |
| CUACAGCAAUAUUACGUUCA | -2.98 ± 0.19 | -0.865 ± 0.098 |
| GGACAGCAAUAUUACGCAAG | -1.69 ± 0.11 | -1.41 ± 0.12 |
| AGUGAGCAAUAUUACGAUAC | -3.02 ± 0.22 | -2.47 ± 0.34 |
| CCAGAGCAAUAUUACGGCAG | -1.8 ± 0.088 | -1 ± 0.13 |
| AUUGAGCAAUAUUACGCGCC | -1.62 ± 0.48 | – |
| AUUCAGCAAUAUUACGAGGA | -2.81 ± 0.32 | -1.63 ± 0.16 |
| CUAGAGCAAUAUUACGUGUC | -4.02 ± 0.3 | -2.88 ± 0.26 |
| AGCCAGCAAUAUUACGUGGC | -3.74 ± 0.19 | -3.57 ± 0.29 |
| GAUAAGCAAUAUUACGCUAU | -2.91 ± 0.26 | -1.01 ± 0.29 |
| CAAUAGCAAUAUUACGCAGU | -3.56 ± 0.26 | -2.12 ± 0.21 |
| CCAUAGCAAUAUUACGAAAG | -2.11 ± 0.12 | -0.18 ± 0.12 |
| UAUCAGCAAUAUUACGUCGC | – | -2.03 ± 0.33 |
| UUCGAGCAAUAUUACGCAUC | -2.83 ± 0.39 | – |
| GACAAGCAAUAUUACGCGGA | -2.24 ± 0.16 | -1.25 ± 0.13 |
| CGGUAGCAAUAUUACGUAAC | -3.22 ± 0.4 | -2.06 ± 0.41 |
| ACGCAGCAAUAUUACGUCAG | -2.75 ± 0.12 | -3 ± 0.19 |
| AGGCAGCAAUAUUACGCUGA | -2.21 ± 0.13 | -1.84 ± 0.21 |
| AUGAAGCAAUAUUACGUAUU | -1.52 ± 0.081 | -1.23 ± 0.099 |
| UGAGAGCAAUAUUACGAGAC | -4.44 ± 0.46 | -2.59 ± 0.29 |

| Sequence | self-splicing fitness (ln) (30 °C) | self-splicing fitness (ln) (37 °C) |
| --- | --- | --- |
| ACUCAGCAAUAUUACGGUGU | -2.56 ± 0.085 | -1.34 ± 0.079 |
| CGAGAGCAAUAUUACGCACU | -2.06 ± 0.2 | -1.89 ± 0.23 |
| AACGAGCAAUAUUACGACGU | -0.822 ± 0.09 | -0.593 ± 0.089 |
| GAGGAGCAAUAUUACGCCAA | – | -1.6 ± 0.48 |
| CUUGAGCAAUAUUACGCUAG | -3.17 ± 0.28 | -2.48 ± 0.27 |
| GUCUAGCAAUAUUACGCCAA | – | -0.981 ± 0.29 |
| GUGGAGCAAUAUUACGCUCG | -1.35 ± 0.16 | -1.39 ± 0.23 |
| AUGGAGCAAUAUUACGAGCA | -2.33 ± 0.46 | -1.17 ± 0.49 |
| UCACAGCAAUAUUACGAGUC | -2.97 ± 0.15 | -3.01 ± 0.2 |
| GCUGAGCAAUAUUACGAUCA | – | -1.55 ± 0.35 |
| UGCCAGCAAUAUUACGGCAA | -1.4 ± 0.079 | -1.52 ± 0.085 |
| GUGCAGCAAUAUUACGAUUU | -1.06 ± 0.1 | -0.209 ± 0.12 |
| AGGUAGCAAUAUUACGACCA | 0.0772 ± 0.018 | 0.199 ± 0.038 |
| CGACAGCAAUAUUACGGUGU | -3.48 ± 0.14 | -2.77 ± 0.16 |
| ACACAGCAAUAUUACGACUU | -0.131 ± 0.043 | 0.0165 ± 0.056 |
| AAUGAGCAAUAUUACGCGCG | -2.52 ± 0.18 | -1.9 ± 0.2 |
| UUGCAGCAAUAUUACGCGCA | -1.84 ± 0.14 | -0.231 ± 0.18 |
| AAAAAGCAAUAUUACGGUGC | -3.45 ± 0.099 | -2.25 ± 0.081 |
| AACAAGCAAUAUUACGGGUC | -1.68 ± 0.14 | -1.65 ± 0.17 |
| UUCAAGCAAUAUUACGCUUA | -1.32 ± 0.096 | -1.2 ± 0.096 |
| CGGGAGCAAUAUUACGCGUA | -2.29 ± 0.29 | -1.03 ± 0.24 |
| GUACAGCAAUAUUACGGAUC | -0.86 ± 0.081 | -0.551 ± 0.11 |
| GUGUAGCAAUAUUACGACAG | -2.07 ± 0.42 | – |
| CAUUAGCAAUAUUACGUGGU | -4.46 ± 0.21 | -2.6 ± 0.16 |
| UUUAAGCAAUAUUACGGCAU | -1.59 ± 0.11 | -0.239 ± 0.12 |
| GUGCAGCAAUAUUACGGCCU | -0.775 ± 0.11 | 0.175 ± 0.13 |
| ACGGAGCAAUAUUACGCAUU | -3.43 ± 0.43 | -2.85 ± 0.34 |

| Sequence | self-splicing fitness (ln) (30 °C) | self-splicing fitness (ln) (37 °C) |
| --- | --- | --- |
| UCAGAGCAAUAUUACGGCAC | – | -2.09 ± 0.33 |
| CGCAAGCAAUAUUACGGACU | -1.39 ± 0.08 | 0.158 ± 0.082 |
| UGCGAGCAAUAUUACGAUUG | -2.09 ± 0.1 | -1.35 ± 0.16 |
| CUCGAGCAAUAUUACGUCUA | -1.79 ± 0.24 | -2.43 ± 0.31 |
| CAAGAGCAAUAUUACGCUAG | – | -2.98 ± 0.35 |
| UGAUAGCAAUAUUACGUACA | -0.211 ± 0.083 | -0.0617 ± 0.12 |
| CCGUAGCAAUAUUACGGCAU | -3.15 ± 0.23 | -2.85 ± 0.25 |
| CAUAAGCAAUAUUACGCUUU | -3.86 ± 0.26 | -2.73 ± 0.24 |
| AUUAAGCAAUAUUACGAAGU | -2.77 ± 0.22 | -0.565 ± 0.21 |
| GGAUAGCAAUAUUACGCAAG | -1.28 ± 0.27 | -0.103 ± 0.34 |
| GAACAGCAAUAUUACGCUCU | -1.37 ± 0.17 | -0.466 ± 0.15 |
| AUGAAGCAAUAUUACGGAGG | -2.82 ± 0.12 | -0.72 ± 0.12 |
| GAGUAGCAAUAUUACGCGAU | -2.26 ± 0.21 | -2.21 ± 0.39 |
| AGCAAGCAAUAUUACGUUUG | -4.51 ± 0.22 | -2.76 ± 0.18 |
| AGGAAGCAAUAUUACGUUGA | – | -1.63 ± 0.46 |
| CAUGAGCAAUAUUACGGUAG | -2.01 ± 0.1 | -0.949 ± 0.11 |
| AUUGAGCAAUAUUACGAUUG | -3.62 ± 0.3 | -3.11 ± 0.26 |
| CCUGAGCAAUAUUACGGCGU | -3.51 ± 0.2 | -2.88 ± 0.19 |
| CGACAGCAAUAUUACGUACU | -1.26 ± 0.082 | -0.578 ± 0.089 |
| AUGGAGCAAUAUUACGCAUC | -3.74 ± 0.14 | -3.29 ± 0.26 |
| UAUCAGCAAUAUUACGCGUU | -1.7 ± 0.13 | -1 ± 0.17 |
| GACUAGCAAUAUUACGACGG | -2.2 ± 0.24 | -1.78 ± 0.35 |
| GAGGAGCAAUAUUACGGAGU | – | -2.57 ± 0.34 |
| ACCGAGCAAUAUUACGAAAG | -3.42 ± 0.37 | -1.68 ± 0.17 |
| CGGGAGCAAUAUUACGUUCC | -2.75 ± 0.31 | – |

From the supplement of paper PMC7877785
